# Assay results: patent publication US9433687B2, “Anti-Notch3 antibodies and antibody-drug conjugates” (Pfizer Inc., priority 2012, dated 2016)
# Key:
# HCC2429 = biological target: T1, HCC2429 (Homo sapiens, UniProt Q9UM47); experiment: Flow cytometry (FACS) binding, HCC2429; conditions: 4 μg/mL antibody
# T1 construct: endogenous Notch3 expressing cell lines, HCC2429 and MDA-MB-468; endogenous in cells; host or cells: HCC2429
# Method: (§1) Unconjugated anti-Notch3 antibodies, hu28 and hu75, were examined for cell surface binding activity to Notch3 expressing cell lines by flow cytometry. Fluorescence activated cell sorting (FACS) analysis was conducted according to standard procedures. Cells were rinsed in HBSS with calcium chloride and magnesium chloride (herein termed HBSS++), harvested using trypsin without EDTA and neutralized with medium containing FBS. Cells were incubated on ice for 30 minutes with 4 μg/mL anti-Notch3 antibodies, hu28 and hu75, in HBSS++containing 3% HICS (heat-inactivated calf serum). Cells were washed three times with cold HBSS++, 3% HICS buffer. Cells were incubated in allophycocyanin-conjugated AffiniPure F(ab′)2 fragment goat anti-human IgG, Fc fragment secondary antibody (Jackson ImmunoResearch Laboratories, Inc., West Grove, Pa.) at 10 μg/mL for 30 minutes on ice in the dark. Cells were washed once with cold HBSS++/3% HICS buffer. Cells were resuspended in HBSS-++/3% HICS, 25 mM HEPES, 1 mM MgCl2 and 25 μg/ml DNaseI. 7-AAD (7-Amino-Actinomycin D) was added for exclusion of nonviable cells. Live cells were analyzed on a BD FACSCalibur flow cytometer (BD Biosciences, San Jose, Calif.). Mean fluorescence intensity (MFI) from channel FL-4 was calculated with FlowJo flow cytometry analysis software (Ashland, Oreg.).
# HCC2429 (lung cancer) = experiment: In vitro cytotoxicity (MTS), HCC2429; format: cell-based, human; conditions: HCC2429; data not shown
# Procedure, shortened: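 Cells with endogenous Notch3 cultured four days with increasing concentrations of anti-Notch3 ADCs (chimeric or humanized antibodies with various linker-payloads, including cysteine-mutant conjugates); non-targeted ADCs served as specificity controls. Viability by MTS; IC50 from logistic non-linear regression, expressed as ng Ab/mL, with DAR given.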
# [1] = test system: Site 2 (S2)-cleavage of the Notch3 receptor in HCC2429 and MDA-MB-468 cells; experiment: S2-cleavage assay (western blot, D11B8); format: cell-based, human; conditions: 5 μg/ml, 24 hours; FIG. 9
# Method: To confirm that binding of anti-Notch3 antibody hu75, but not hu28, to the NRR domain of Notch3 is accompanied by a decrease in S2-cleavage, western blot analysis was performed. The rabbit monoclonal anti-Notch3 antibody D11B8 (Cell Signaling Technologies) recognizes the Notch3 C-terminal fragments that are products of S1 and S2 proteolytic cleavage events. […] The anti-Notch3 antibody hu28 bound to LNR-C and HD1 domains that are located on a linear, covalently linked region of the NRR domain that is N-terminal to the S1-site. An inhibitory antibody is expected to decrease the detection of S2-cleaved Notch3 by stabilizing the NRR domain in an auto-inhibitory conformation thus preventing S2-cleavage, while a non-inhibitory antibody is not expected to have an effect on S2-cleavage.
# Site 2 (S2)-cleavage of the Notch3 receptor was assessed by western blot analysis of the protein using the D11B8 (Cell Signaling Technologies) antibody which recognizes an epitope surrounding Glu2312 in the C-terminal domain. HCC2429 and MDA-MB-468 breast cancer cells were used to examine the effects of inhibitory anti-Notch3 antibody hu75 and non-inhibitory anti-Notch3 antibody hu28 on S2-cleavage. For the assay, 1-2.5×10^6 cells were plated in complete growth medium. […] Notch3 was detected with D11B8 antibody and, as a loading control, anti-GAPDH (Sigma) using standard western blot procedures.
# U2OS/hNotch3 = U2OS/hNotch3 (Homo sapiens, UniProt Q9UM47); experiment: Flow cytometry (FACS) binding, U2OS/hNotch3; set-up: U-2 OS cells stably over-expressing human full length Notch3 protein on cell surface; expressed in transfected cells; host or cells: U-2 OS (human osteosarcoma); conditions: 4 μg/mL antibody; positive control cell line
# Method: as §1
# HCC2429 lung xenografts = experiment: HCC2429 lung xenograft model (unconjugated antibodies); format: in vivo, mouse; conditions: for tumor volume (mm^3 ± SEM): iv Q4dx4
# Method: Additional in vivo experiments were performed with the HCC2429 lung cancer cell line using an unconjugated rat-human chimeric anti-Notch3 antibody, ch75-hIgG1, to determine whether ch75-hIgG1's Notch3 signaling inhibition contributed to the observed potency of the anti-Notch3 hu75-ADCs. To generate xenografts, nude (Nu/Nu) female mice were implanted subcutaneously with 3.5×10^6 HCC2429 cells in 50% Matrigel (BD Biosciences).
# The HCC2429 lung model was dosed intravenously Q4d×4 with PBS vehicle, rat-human chimeric anti-Notch3 antibody, ch75-hIgG1, and humanized anti-Notch1 antibody, hu438 VH1.1/VL1.8, at the does provided in Table 22. From 8 animals, mean tumor masses (±SEM) for each treatment group were calculated and compared to the control PBS vehicle group. P-values based on analysis of variance (ANOVA) were calculated to determine statistical significance of observed growth inhibition of anti-Notch treatments versus control PBS using Excel built-in statistical functions. Percent (%) growth inhibition values were calculated from measurements on the final day of the study for drug-treated compared with vehicle-treated mice with the formula 100*{1−[(TreatedDay 14−TreatedDay 0)/(ControlDay 14−ControlDay 0)]}.
# T1 sequence (Q9UM47 40-2321): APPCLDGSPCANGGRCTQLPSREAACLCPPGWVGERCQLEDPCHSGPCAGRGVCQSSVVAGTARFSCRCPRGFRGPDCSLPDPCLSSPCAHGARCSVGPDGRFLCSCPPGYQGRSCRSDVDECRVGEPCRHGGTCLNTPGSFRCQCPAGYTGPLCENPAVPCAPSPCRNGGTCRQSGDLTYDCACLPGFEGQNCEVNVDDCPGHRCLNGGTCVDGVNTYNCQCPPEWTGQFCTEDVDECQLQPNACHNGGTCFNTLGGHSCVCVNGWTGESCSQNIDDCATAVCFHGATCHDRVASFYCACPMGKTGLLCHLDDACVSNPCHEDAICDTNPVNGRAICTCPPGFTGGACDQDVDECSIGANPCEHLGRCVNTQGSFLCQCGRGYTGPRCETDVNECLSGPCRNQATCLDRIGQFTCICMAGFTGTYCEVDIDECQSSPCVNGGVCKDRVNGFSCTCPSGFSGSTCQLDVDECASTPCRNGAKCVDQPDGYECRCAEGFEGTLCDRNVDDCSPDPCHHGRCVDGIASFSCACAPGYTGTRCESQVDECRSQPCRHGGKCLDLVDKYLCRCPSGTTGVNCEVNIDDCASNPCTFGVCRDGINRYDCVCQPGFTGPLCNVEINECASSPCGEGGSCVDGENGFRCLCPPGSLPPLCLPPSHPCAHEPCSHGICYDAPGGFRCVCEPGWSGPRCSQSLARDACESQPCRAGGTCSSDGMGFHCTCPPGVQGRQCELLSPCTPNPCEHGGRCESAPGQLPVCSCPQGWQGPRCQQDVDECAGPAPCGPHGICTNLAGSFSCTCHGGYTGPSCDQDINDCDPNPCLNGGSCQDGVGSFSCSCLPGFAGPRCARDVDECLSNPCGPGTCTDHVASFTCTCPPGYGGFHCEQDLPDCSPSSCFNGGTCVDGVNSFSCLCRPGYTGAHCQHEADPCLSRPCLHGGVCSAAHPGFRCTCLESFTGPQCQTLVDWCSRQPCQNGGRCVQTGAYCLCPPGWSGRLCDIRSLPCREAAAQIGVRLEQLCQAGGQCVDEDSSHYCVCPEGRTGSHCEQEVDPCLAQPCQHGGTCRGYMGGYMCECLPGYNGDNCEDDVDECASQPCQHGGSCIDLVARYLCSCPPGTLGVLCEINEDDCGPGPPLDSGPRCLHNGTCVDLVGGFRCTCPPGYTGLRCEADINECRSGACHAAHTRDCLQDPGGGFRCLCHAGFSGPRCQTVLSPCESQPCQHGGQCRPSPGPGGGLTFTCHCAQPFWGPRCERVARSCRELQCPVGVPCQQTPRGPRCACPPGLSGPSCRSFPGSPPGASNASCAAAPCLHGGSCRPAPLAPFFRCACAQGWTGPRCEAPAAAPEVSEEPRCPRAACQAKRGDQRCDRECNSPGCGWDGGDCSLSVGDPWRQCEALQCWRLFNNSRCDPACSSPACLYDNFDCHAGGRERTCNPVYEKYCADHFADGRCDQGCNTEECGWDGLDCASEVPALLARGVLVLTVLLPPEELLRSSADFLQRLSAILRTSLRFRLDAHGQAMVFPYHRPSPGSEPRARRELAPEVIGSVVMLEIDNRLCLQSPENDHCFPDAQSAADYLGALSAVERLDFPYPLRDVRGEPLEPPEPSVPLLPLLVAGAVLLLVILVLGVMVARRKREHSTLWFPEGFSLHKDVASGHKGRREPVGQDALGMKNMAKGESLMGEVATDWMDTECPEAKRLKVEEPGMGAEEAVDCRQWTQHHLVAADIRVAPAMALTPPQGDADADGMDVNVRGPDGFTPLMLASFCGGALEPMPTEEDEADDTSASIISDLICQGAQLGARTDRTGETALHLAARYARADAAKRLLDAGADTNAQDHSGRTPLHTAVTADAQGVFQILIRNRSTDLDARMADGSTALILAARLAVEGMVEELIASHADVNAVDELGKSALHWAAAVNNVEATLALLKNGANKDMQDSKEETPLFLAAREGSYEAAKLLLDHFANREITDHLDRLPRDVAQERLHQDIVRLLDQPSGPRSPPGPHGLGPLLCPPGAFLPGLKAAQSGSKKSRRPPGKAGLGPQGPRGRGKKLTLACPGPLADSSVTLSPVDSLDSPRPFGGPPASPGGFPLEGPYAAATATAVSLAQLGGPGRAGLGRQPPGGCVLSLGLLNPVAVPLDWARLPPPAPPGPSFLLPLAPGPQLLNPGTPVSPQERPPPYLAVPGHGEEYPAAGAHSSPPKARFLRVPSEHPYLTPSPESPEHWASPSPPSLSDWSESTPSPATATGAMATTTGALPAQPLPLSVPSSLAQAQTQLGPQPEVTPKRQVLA
# Chain of U2OS/hNotch3 (Q9UM47 40-2321): as above
Molecule,MFI (HCC2429),effect of unconjugated antibody on viability (HCC2429 (lung cancer)),detection of S1- and S2-cleaved Notch3 C-terminal fragments [1],MFI (U2OS/hNotch3),"tumor volume (mm^3 ± SEM) (HCC2429 lung xenografts; Day 0, dose not given)",tumor volume (mm^3 ± SEM) (HCC2429 lung xenografts; Day 3),tumor volume (mm^3 ± SEM) (HCC2429 lung xenografts; Day 5),tumor volume (mm^3 ± SEM) (HCC2429 lung xenografts; Day 7),tumor volume (mm^3 ± SEM) (HCC2429 lung xenografts; Day 10),tumor volume (mm^3 ± SEM) (HCC2429 lung xenografts; Day 12),tumor volume (mm^3 ± SEM) (HCC2429 lung xenografts; Day 14),tumor growth inhibition compared to PBS vehicle (HCC2429 lung xenografts; final day of the study (Day 14))
"hu28 VH1.0/VL1.0: humanized r28 variant VH1.0/VL1.0, anti-Notch3 antibody (VH SEQ ID NO: 13, VL SEQ ID NO: 25) (antibody, V domains shown) VH: EVQLVESGGGLVQPGGSLRLSCAASGFTFRDYGMTWVRQAPGKGLEWVAYISSGSNYIYYAEAVKGRFTISRDNAKNSLYLQMNSLRAEDTAVYYCARRGPFVLDAWGQGTLVTVSS VL: DIQMTQSPSSLSASVGDRVTITCKASQSINRYLHWYQQKPGKAPKLLIYNANGLQTGVPSRFSGSGSGTDFTLTISSLQPEDFATYYCLQHNTWPDTFGGGTKVEIK",564,did not affect the viability,both S1- and S2-cleaved Notch3 C-terminal fragments were detected,256,–,–,–,–,–,–,–,–
"ch75: rat-human chimeric anti-Notch3 antibody 75, rat variable regions fused with human IgG1 and human kappa (antibody, V domains shown) VH: QVKLLQSGAALVKPGASVKMSCKASGYAFTDYWVTWVKQSHGKSLEWIGEISPNSGGTNFNEKFKGKATLTVDKSTSTAYMELSRLTSEDSAIYYCTRGEIRYNWFAYWGQGTLVTVSS VL: NIVMTQSPKSMSISVGDRVTMNCKASQNVGNNIAWYQQKPGQSPKLLIYYASNRYTGVPDRFTGGGYGTDFTLTINSMQAEDAAFYYCQRLYNSPFTFGSGTKLEIK",–,–,–,–,110 ± 5 mm^3,211 ± 24 mm^3,356 ± 41 mm^3,574 ± 59 mm^3,1054 ± 104 mm^3,1441 ± 139 mm^3,1821 ± 175 mm^3,did not inhibit tumor growth
